Test results published in patent US8293494B2, “Tri-demethylation-capable protein complex, method of its preparation and its use” (Universitatsklinikum Freiburg, priority 2007, dated 2012).

System: H3K9 on core histones or nucleosomes from HeLa cells
Experiment: In vitro demethylation assay
Format: biochemical
Settings: 5 hours at 37° C., Western blot; for demethylation of trimethyl H3K9: core histones and nucleosomes from HeLa cells
Method: FIG. 2 JMJD2C interacts with chromatin and demethylates H3K9. LNCaP cells were incubated with or without the AR agonist R1881 (a, b), and transfected with stealth RNAi (b). ChIP or Re-ChIP was performed with the indicated antibodies. The precipitated chromatin was amplified by PCR using primers flanking the promoter region (ARE I+II) and the enhancer region (ARE III) of the PSA gene, the promoter region (ARE) of the KLK2 gene, or the promoters of the unrelated GAPDH and U6 genes. Western blot analysis (b, lower right panel) verified the specific siRNA-mediated knockdown of JMJD2C. c, Core histories or nucleosomes from HeLa cells were incubated with recombinant JMJD2C (aa 12-349) or mutant JMJD2C H190A (aa 12-349). Western blots were decorated with the indicated antibodies against α-mono-, α-di-, or α-trimethyl H3K9.
FIG. 6: The integrity of core histones and nucleosomes is maintained during the demethylation assay. Core histones or nucleosomes from HeLa cells were incubated with recombinant JMJD2C (aa 12-349) or mutant JMJD2C H190A (aa 12-349). Western blots were decorated with α-H3 antibody.
The demethylation assays were performed as described^4. His-tagged proteins were incubated for 5 hours at 37° C. in demethylation buffer containing 50 mM HEPES-KOH pH 8.0, 2 mM ascorbate, 100 μM Fe(NH4)2(SO4)2, 1 mM α-ketoglutarate with 1 μg of nucleosomes or core histones purified from HeLa cells^22. The reaction mixture was analysed by SDS-PAGE followed by Western blotting using antibodies as indicated.

B1: JMJD2C: Recombinantly expressed and purified His-tagged JMJD2C (aa 12-349), a JMJC domain-containing histone demethylase (protein, UniProt Q9H3R0 12-349, looked up, fragment)
chain: PSCKIMTFRPSMEEFREFNKYLAYMESKGAHRAGLAKVIPPKEWKPRQCYDDIDNLLIPAPIQQMVTGQSGLFTQYNIQKKAMTVKEFRQLANSGKYCTPRYLDYEDLERKYWKNLTFVAPIYGADINGSIYDEGVDEWNIARLNTVLDVVEEECGISIEGVNTPYLYFGMWKTTFAWHTEDMDLYSINYLHFGEPKSWYAIPPEHGKRLERLAQGFFPSSSQGCDAFLRHKMTLISPSVLKKYGIPFDKITQEAGEFMITFPYGYHAGFNHGFNCAESTNFATVRWIDYGKVAKLCTCRKDMVKISMDIFVRKFQPDRYQLWKQGKDIYTIDHTKPT
modifications: His-tag
notes: Recombinantly expressed and purified His-tagged JMJD2C (aa 12-349), a JMJC domain-containing histone demethylase
  methylation status of mono- and dimethyl H3K9: not altered
  demethylation of trimethyl H3K9: very efficiently demethylates

B2: JMJD2C H190A: enzymatically impaired mutant JMJD2C H190A (aa 12-349) (protein)
chain: PSCKIMTFRPSMEEFREFNKYLAYMESKGAHRAGLAKVIPPKEWKPRQCYDDIDNLLIPAPIQQMVTGQSGLFTQYNIQKKAMTVKEFRQLANSGKYCTPRYLDYEDLERKYWKNLTFVAPIYGADINGSIYDEGVDEWNIARLNTVLDVVEEECGISIEGVNTPYLYFGMWKTTFAWATEDMDLYSINYLHFGEPKSWYAIPPEHGKRLERLAQGFFPSSSQGCDAFLRHKMTLISPSVLKKYGIPFDKITQEAGEFMITFPYGYHAGFNHGFNCAESTNFATVRWIDYGKVAKLCTCRKDMVKISMDIFVRKFQPDRYQLWKQGKDIYTIDHTKPT
modifications: left off: small tags and cut ends
  demethylation of trimethyl H3K9: fails to demethylate
